Experimental findings from patent US6828106 are described below.

The target in the data set is T1, reporter peptide (Example 9, TEV) (not fully specified).
T1 chain: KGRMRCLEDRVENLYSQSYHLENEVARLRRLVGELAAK

B1: TEV (Tobacco Etch Virus) protease (protein)
chain: GESLFKGPRDYNPISSTICHLTNESDGHTTSLYGIGFGPFIITNKHLFRRNNGTLLVQSLHGVFKVKNTTTLQQHLIDGRDMIIIRMPKDFPPFPQKLKFREPQREERICLVTTNFQTKSMSSMVSDTSCTFPSSDGIFWKHWIQTKDGQCGSPLVSTRDGFIVGIHSASNFTNTNNYFTSVPKNFMELLTNQEAQQWVSGWRLNADSVLWGGHKVFMSKPEEPFQPVKEATQLMNELVYSQ
Turning to B1, the “Km of TEV protease by FP analysis” value was 36 µM and the “Km of TEV protease by FRET analysis” value was determined as 36 µM.
